Source: the supplement of paper PMC9112550, “Optimization of the antimicrobial peptide Bac7 by deep mutational scanning” (BMC Biology, 2022)

System: Escherichia coli TOP10
Test: shrunken log2 fold change of peptide-encoding DNA abundance (4.5 h post-induction vs induction); higher = less antimicrobial activity (less host growth inhibition)
Details: time post-induction: 4.5 h; library: site-saturation at positions 5, 18, 19, 20
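Note: peptides expressed intracellularly from a pBAD plasmid library in pooled LB shake-flask culture, induced with 0.3% L-arabinose, DNA abundance read by NGS, three biological replicates, DESeq2 with apeglm shrinkage.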

| Sequence | shrunken log2 fold change |
| --- | --- |
| RRIRDRPPRLPRPRPRPNYVPRP | -0.147 |
| RRIRDRPPRLPRPRPRPPAKPRP | 0.443 |
| RRIRDRPPRLPRPRPRPPCQPRP | 0.029 |
| RRIRDRPPRLPRPRPRPPDEPRP | 0.00333 |
| RRIRDRPPRLPRPRPRPPDKPRP | 0.189 |
| RRIRDRPPRLPRPRPRPPEIPRP | 0.487 |
| RRIRDRPPRLPRPRPRPPFDPRP | 0.422 |
| RRIRDRPPRLPRPRPRPPGLPRP | -0.317 |
| RRIRDRPPRLPRPRPRPPGTPRP | 0.435 |
| RRIRDRPPRLPRPRPRPPHYPRP | 0.0761 |
| RRIRDRPPRLPRPRPRPPIGPRP | 0.849 |
| RRIRDRPPRLPRPRPRPPIYPRP | -0.242 |
| RRIRDRPPRLPRPRPRPPKPPRP | 0.214 |
| RRIRDRPPRLPRPRPRPPLMPRP | 0.325 |
| RRIRDRPPRLPRPRPRPPMAPRP | -0.0543 |
| RRIRDRPPRLPRPRPRPPPIPRP | 0.45 |
| RRIRDRPPRLPRPRPRPPPMPRP | 0.519 |
| RRIRDRPPRLPRPRPRPPRFPRP | 0.315 |
| RRIRDRPPRLPRPRPRPPRGPRP | 1.31 |
| RRIRDRPPRLPRPRPRPPRYPRP | 0.244 |
| RRIRDRPPRLPRPRPRPPSCPRP | 0.379 |
| RRIRDRPPRLPRPRPRPPSKPRP | 0.0904 |
| RRIRDRPPRLPRPRPRPPSLPRP | -0.128 |
| RRIRDRPPRLPRPRPRPPVAPRP | 0.304 |
| RRIRDRPPRLPRPRPRPPVIPRP | 0.0554 |

| Sequence | shrunken log2 fold change |
| --- | --- |
| RRIRDRPPRLPRPRPRPPVLPRP | 0.267 |
| RRIRDRPPRLPRPRPRPPVRPRP | 0.0542 |
| RRIRDRPPRLPRPRPRPPWDPRP | 0.442 |
| RRIRDRPPRLPRPRPRPPWKPRP | 0.141 |
| RRIRDRPPRLPRPRPRPPWPPRP | 0.654 |
| RRIRDRPPRLPRPRPRPQAFPRP | -0.184 |
| RRIRDRPPRLPRPRPRPQANPRP | 0.231 |
| RRIRDRPPRLPRPRPRPQFKPRP | -0.0159 |
| RRIRDRPPRLPRPRPRPQHIPRP | -0.762 |
| RRIRDRPPRLPRPRPRPQHSPRP | -0.312 |
| RRIRDRPPRLPRPRPRPQKNPRP | -0.431 |
| RRIRDRPPRLPRPRPRPQKPPRP | -0.00349 |
| RRIRDRPPRLPRPRPRPQLEPRP | -0.0748 |
| RRIRDRPPRLPRPRPRPQLHPRP | 0.267 |
| RRIRDRPPRLPRPRPRPQLKPRP | -0.0603 |
| RRIRDRPPRLPRPRPRPQMTPRP | 0.103 |
| RRIRDRPPRLPRPRPRPQNFPRP | -0.707 |
| RRIRDRPPRLPRPRPRPQNGPRP | -0.0018 |
| RRIRDRPPRLPRPRPRPQPNPRP | 0.072 |
| RRIRDRPPRLPRPRPRPQPRPRP | 0.458 |
| RRIRDRPPRLPRPRPRPQPWPRP | 0.11 |
| RRIRDRPPRLPRPRPRPQQRPRP | 0.147 |
| RRIRDRPPRLPRPRPRPQTMPRP | -0.067 |
| RRIRDRPPRLPRPRPRPQTVPRP | 0.0628 |
| RRIRDRPPRLPRPRPRPQTYPRP | -0.24 |

| Sequence | shrunken log2 fold change |
| --- | --- |
| RRIRDRPPRLPRPRPRPQYYPRP | 0.003 |
| RRIRDRPPRLPRPRPRPRCIPRP | -0.0108 |
| RRIRDRPPRLPRPRPRPRDHPRP | 0.0411 |
| RRIRDRPPRLPRPRPRPRDLPRP | 0.139 |
| RRIRDRPPRLPRPRPRPRDNPRP | -0.339 |
| RRIRDRPPRLPRPRPRPRECPRP | 0.0105 |
| RRIRDRPPRLPRPRPRPRFSPRP | -0.037 |
| RRIRDRPPRLPRPRPRPRGEPRP | 0.267 |
| RRIRDRPPRLPRPRPRPRGHPRP | 0.321 |
| RRIRDRPPRLPRPRPRPRGMPRP | 0.0251 |
| RRIRDRPPRLPRPRPRPRHPPRP | 0.0563 |
| RRIRDRPPRLPRPRPRPRIEPRP | 0.119 |
| RRIRDRPPRLPRPRPRPRIHPRP | -0.563 |
| RRIRDRPPRLPRPRPRPRIWPRP | 0.53 |
| RRIRDRPPRLPRPRPRPRKCPRP | -0.0114 |
| RRIRDRPPRLPRPRPRPRKGPRP | 0.0785 |
| RRIRDRPPRLPRPRPRPRKIPRP | 0.0843 |
| RRIRDRPPRLPRPRPRPRMCPRP | 0.0171 |
| RRIRDRPPRLPRPRPRPRRGPRP | 0.365 |
| RRIRDRPPRLPRPRPRPRRIPRP | 0.0214 |
| RRIRDRPPRLPRPRPRPRRNPRP | 0.225 |
| RRIRDRPPRLPRPRPRPRRSPRP | 0.174 |
| RRIRDRPPRLPRPRPRPRSIPRP | -0.0279 |
| RRIRDRPPRLPRPRPRPRSKPRP | 0.401 |
| RRIRDRPPRLPRPRPRPRSPPRP | -0.183 |

| Sequence | shrunken log2 fold change |
| --- | --- |
| RRIRDRPPRLPRPRPRPRWFPRP | -0.0867 |
| RRIRDRPPRLPRPRPRPSAQPRP | 0.469 |
| RRIRDRPPRLPRPRPRPSDRPRP | 0.159 |
| RRIRDRPPRLPRPRPRPSEDPRP | 0.00101 |
| RRIRDRPPRLPRPRPRPSHSPRP | -0.127 |
| RRIRDRPPRLPRPRPRPSIRPRP | -0.103 |
| RRIRDRPPRLPRPRPRPSKAPRP | -0.393 |
| RRIRDRPPRLPRPRPRPSKCPRP | -0.317 |
| RRIRDRPPRLPRPRPRPSLEPRP | 0.245 |
| RRIRDRPPRLPRPRPRPSLGPRP | 0.487 |
| RRIRDRPPRLPRPRPRPSLPPRP | -0.00636 |
| RRIRDRPPRLPRPRPRPSMLPRP | -0.244 |
| RRIRDRPPRLPRPRPRPSNVPRP | -0.0805 |
| RRIRDRPPRLPRPRPRPSPKPRP | -0.00809 |
| RRIRDRPPRLPRPRPRPSRQPRP | -0.12 |
| RRIRDRPPRLPRPRPRPSVQPRP | 0.111 |
| RRIRDRPPRLPRPRPRPSVVPRP | -0.0127 |
| RRIRDRPPRLPRPRPRPSWDPRP | 0.199 |
| RRIRDRPPRLPRPRPRPSYHPRP | -0.835 |
| RRIRDRPPRLPRPRPRPSYSPRP | -0.581 |
| RRIRDRPPRLPRPRPRPTCSPRP | 0.112 |
| RRIRDRPPRLPRPRPRPTCVPRP | 0.346 |
| RRIRDRPPRLPRPRPRPTEEPRP | 0.355 |
| RRIRDRPPRLPRPRPRPTERPRP | 0.463 |
| RRIRDRPPRLPRPRPRPTFLPRP | 0.196 |

| Sequence | shrunken log2 fold change |
| --- | --- |
| RRIRDRPPRLPRPRPRPTGAPRP | 1.37 |
| RRIRDRPPRLPRPRPRPTGPPRP | 0.334 |
| RRIRDRPPRLPRPRPRPTHKPRP | -0.0994 |
| RRIRDRPPRLPRPRPRPTHSPRP | 0.177 |
| RRIRDRPPRLPRPRPRPTIDPRP | 0.607 |
| RRIRDRPPRLPRPRPRPTITPRP | 0.0537 |
| RRIRDRPPRLPRPRPRPTKAPRP | 0.000414 |
| RRIRDRPPRLPRPRPRPTKFPRP | 0.138 |
| RRIRDRPPRLPRPRPRPTLHPRP | 0.605 |
| RRIRDRPPRLPRPRPRPTLWPRP | 2.36 |
| RRIRDRPPRLPRPRPRPTMLPRP | 0.138 |
| RRIRDRPPRLPRPRPRPTMNPRP | 0.116 |
| RRIRDRPPRLPRPRPRPTNLPRP | -0.182 |
| RRIRDRPPRLPRPRPRPTNYPRP | -0.48 |
| RRIRDRPPRLPRPRPRPTPRPRP | 0.792 |
| RRIRDRPPRLPRPRPRPTQDPRP | 1.27 |
| RRIRDRPPRLPRPRPRPTRIPRP | 0.0348 |
| RRIRDRPPRLPRPRPRPTRVPRP | 0.0497 |
| RRIRDRPPRLPRPRPRPTSVPRP | -0.0218 |
| RRIRDRPPRLPRPRPRPTTCPRP | 0.463 |
| RRIRDRPPRLPRPRPRPTTFPRP | 0.0301 |
| RRIRDRPPRLPRPRPRPTTRPRP | 0.542 |
| RRIRDRPPRLPRPRPRPTTYPRP | -0.0974 |
| RRIRDRPPRLPRPRPRPTVSPRP | 0.853 |
| RRIRDRPPRLPRPRPRPTWQPRP | 0.542 |

| Sequence | shrunken log2 fold change |
| --- | --- |
| RRIRDRPPRLPRPRPRPTYVPRP | -0.0733 |
| RRIRDRPPRLPRPRPRPVAQPRP | 0.616 |
| RRIRDRPPRLPRPRPRPVARPRP | 0.56 |
| RRIRDRPPRLPRPRPRPVAVPRP | 0.453 |
| RRIRDRPPRLPRPRPRPVCGPRP | 0.979 |
| RRIRDRPPRLPRPRPRPVCKPRP | -0.0246 |
| RRIRDRPPRLPRPRPRPVCQPRP | 0.0526 |
| RRIRDRPPRLPRPRPRPVDHPRP | -0.173 |
| RRIRDRPPRLPRPRPRPVEHPRP | 0.115 |
| RRIRDRPPRLPRPRPRPVFDPRP | 0.291 |
| RRIRDRPPRLPRPRPRPVFIPRP | -0.476 |
| RRIRDRPPRLPRPRPRPVGCPRP | 0.229 |
| RRIRDRPPRLPRPRPRPVGDPRP | 0.47 |
| RRIRDRPPRLPRPRPRPVGKPRP | 0.0278 |
| RRIRDRPPRLPRPRPRPVGQPRP | 0.435 |
| RRIRDRPPRLPRPRPRPVIMPRP | -0.381 |
| RRIRDRPPRLPRPRPRPVLCPRP | 0.28 |
| RRIRDRPPRLPRPRPRPVPRPRP | 0.186 |
| RRIRDRPPRLPRPRPRPVQEPRP | -0.0575 |
| RRIRDRPPRLPRPRPRPVRCPRP | 0.339 |
| RRIRDRPPRLPRPRPRPVRPPRP | 1.07 |
| RRIRDRPPRLPRPRPRPVSDPRP | -0.145 |
| RRIRDRPPRLPRPRPRPVTLPRP | -0.283 |
| RRIRDRPPRLPRPRPRPVTMPRP | -0.228 |
| RRIRDRPPRLPRPRPRPWANPRP | 0.0419 |
